The values below come from PMC4157346.

Test [1] deals with CXCR1 receptor on stably transfected RBL-2H3 cells (UniProt P25024).
The target is the same in test [2]. Description: radioligand binding.
In test [3] the target is CXCR2 receptor on stably transfected RBL-2H3 cells (human) (UniProt P25025). As to the kind of experiment: radioligand binding.

In test [1], CXCL8 G31V mutant (ligand) registered an EC50 of Ca2+ release, CXCR1-transfected RBL-2H3 cells of 22.9 nM.
CXCL8 P32A mutant (ligand) registered an EC50 of Ca2+ release, CXCR1-transfected RBL-2H3 cells in test [1] of 10.7 nM.
Same read-out and setting: in the case of CXCL8 P32G mutant (ligand) it was above 1000 nM.
In general, Kd refers to a measure of binding affinity in units of concentration. “CXCL8 wild type (from UniProt P10145 21-99) (ligand)” displayed an EC50 of Ca2+ release, CXCR1-transfected RBL-2H3 cells in test [1] of 2.5 nM. Besides, the Kd is 4.1 nM in test [2] and 5.4 nM in test [3].
